{"source": "paper PMC4818781", "about": "(EMBO Reports, 2016)", "key": {"[1]": {"molecular_target": "the molecule itself", "test": "SEC-MALS; room temperature; 100 μl of protein at 1 mg/ml; 50 mM HEPES pH 8, 150 mM NaCl, 5 mM DTT; elution volumes of SEC also told"}, "[2]": {"molecular_target": "the molecule itself", "test": "SEC-MALS; room temperature; 100 μl of protein at 1 mg/ml; 50 mM HEPES pH 8, 50 mM NaCl, 5 mM DTT"}, "[3]": {"molecular_target": "the molecule itself", "test": "SEC-MALS; room temperature; 100 μl of protein at 1 mg/ml; 50 mM HEPES pH 8, 300 mM NaCl, 1 mM TCEP"}, "[4]": {"molecular_target": "hsMis18β_(56–183), Yippee‐like globular domain of human Mis18β (human, UniProt O43482 56-183)", "sequence (O43482 56-183)": "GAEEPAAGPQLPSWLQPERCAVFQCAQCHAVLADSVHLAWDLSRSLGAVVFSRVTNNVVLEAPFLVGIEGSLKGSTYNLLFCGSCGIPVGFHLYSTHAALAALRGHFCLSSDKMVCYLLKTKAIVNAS", "test": "SEC-MALS; room temperature; 100 μl of protein at 1 mg/ml; 50 mM HEPES pH 8, 150 mM NaCl, 5 mM DTT; elution volumes of SEC also told", "conditions": "both partners purified"}}, "note": "Values joined by “and” are separate entries in the source; they are usually repeats but may differ in a detail not shown here. Equal values may be shown once."}
{"binder": "His‐GFP‐spMis18_(C‐term‐α), C‐terminal α‐helical domain of S. pombe Mis18 (domain or fragment, Schizosaccharomyces pombe, UniProt Q9P802 121-194, looked up) VNPEGLTRYQVDLEMREDIIKLKSFCLSLYEKFELHDETLRSVKETISSLKKPKIEGKEGKKEKARTYSKRTRK", "values": [{"measurement": "stoichiometry N", "setting": "[1]", "result": 3}]}
{"binder": "His‐spMis18ΔC (amino acids 1–168) (domain or fragment, Schizosaccharomyces pombe, UniProt Q9P802 1-168, looked up) MSQTETSHSGYIDFKKESQPSVFQCKKCFQIVGDSNAWVISHREYLSFTLSDAVENSVRVEDTFKRSDDGLCVYSELSCTRCNEVIGKVYNSTPIYLDDIRDMYTFSMDKLQAYQLGNKTVNPEGLTRYQVDLEMREDIIKLKSFCLSLYEKFELHDETLRSVKETIS", "values": [{"measurement": "stoichiometry N", "setting": "[2]", "result": "2 and 4"}]}
{"binder": "His‐spMis18_(1–120), N‐terminal Yippee‐like globular domain of S. pombe Mis18 (domain or fragment, Schizosaccharomyces pombe, UniProt Q9P802 1-120, looked up) MSQTETSHSGYIDFKKESQPSVFQCKKCFQIVGDSNAWVISHREYLSFTLSDAVENSVRVEDTFKRSDDGLCVYSELSCTRCNEVIGKVYNSTPIYLDDIRDMYTFSMDKLQAYQLGNKT", "values": [{"measurement": "stoichiometry N", "setting": "[1]", "result": 2}]}
{"binder": "His‐GFP‐spMis18fl, recombinant full‐length S. pombe Mis18 (natural protein, Schizosaccharomyces pombe, UniProt Q9P802 1-194, looked up) MSQTETSHSGYIDFKKESQPSVFQCKKCFQIVGDSNAWVISHREYLSFTLSDAVENSVRVEDTFKRSDDGLCVYSELSCTRCNEVIGKVYNSTPIYLDDIRDMYTFSMDKLQAYQLGNKTVNPEGLTRYQVDLEMREDIIKLKSFCLSLYEKFELHDETLRSVKETISSLKKPKIEGKEGKKEKARTYSKRTRK", "values": [{"measurement": "stoichiometry N", "setting": "[3]", "result": "4 and 2"}]}
{"binder": "His‐hsMis18α_(77–187), Yippee‐like globular domain of human Mis18α (domain or fragment, UniProt Q9NYP9 77-187, looked up) EERPLVFLCSGCRRPLGDSLSWVASQEDTNCILLRCVSCNVSVDKEQKLSKREKENGCVLETLCCAGCSLNLGYVYRCTPKNLDYKRDLFCLSVEAIESYVLGSSEKQIVS", "values": [{"measurement": "stoichiometry N", "setting": "[1]", "result": 2}, {"measurement": "stoichiometry N", "setting": "[4]", "result": 1}]}
